What all share (details): remark: other sources report otherwise
Test [1] concerns the target T1, LFA-1 (lymphocyte function-associated antigen-1), purified heterodimer captured on ELISA plates (human), P20701.
Test [2] deals with T1, LFA-1 (lymphocyte function-associated …). The test can be described thus: LFA-1/ICAM-1 ELISA: sICAM-1 titrated against ICAM-1-Ig on antibody-captured LFA-1; reference compound 3 (2 nM IC50).
Test [3] shares this target. Briefly: LFA-1/small molecule ELISA: sICAM-1 titrated against 25 nM fluorescein-labelled compound 2B on antibody-captured LFA-1.

The values that follow come from patent US20090155176A1.

T1 sequence (P20701 26-1170 limits assumed, form in doubt, chain 1 of 2): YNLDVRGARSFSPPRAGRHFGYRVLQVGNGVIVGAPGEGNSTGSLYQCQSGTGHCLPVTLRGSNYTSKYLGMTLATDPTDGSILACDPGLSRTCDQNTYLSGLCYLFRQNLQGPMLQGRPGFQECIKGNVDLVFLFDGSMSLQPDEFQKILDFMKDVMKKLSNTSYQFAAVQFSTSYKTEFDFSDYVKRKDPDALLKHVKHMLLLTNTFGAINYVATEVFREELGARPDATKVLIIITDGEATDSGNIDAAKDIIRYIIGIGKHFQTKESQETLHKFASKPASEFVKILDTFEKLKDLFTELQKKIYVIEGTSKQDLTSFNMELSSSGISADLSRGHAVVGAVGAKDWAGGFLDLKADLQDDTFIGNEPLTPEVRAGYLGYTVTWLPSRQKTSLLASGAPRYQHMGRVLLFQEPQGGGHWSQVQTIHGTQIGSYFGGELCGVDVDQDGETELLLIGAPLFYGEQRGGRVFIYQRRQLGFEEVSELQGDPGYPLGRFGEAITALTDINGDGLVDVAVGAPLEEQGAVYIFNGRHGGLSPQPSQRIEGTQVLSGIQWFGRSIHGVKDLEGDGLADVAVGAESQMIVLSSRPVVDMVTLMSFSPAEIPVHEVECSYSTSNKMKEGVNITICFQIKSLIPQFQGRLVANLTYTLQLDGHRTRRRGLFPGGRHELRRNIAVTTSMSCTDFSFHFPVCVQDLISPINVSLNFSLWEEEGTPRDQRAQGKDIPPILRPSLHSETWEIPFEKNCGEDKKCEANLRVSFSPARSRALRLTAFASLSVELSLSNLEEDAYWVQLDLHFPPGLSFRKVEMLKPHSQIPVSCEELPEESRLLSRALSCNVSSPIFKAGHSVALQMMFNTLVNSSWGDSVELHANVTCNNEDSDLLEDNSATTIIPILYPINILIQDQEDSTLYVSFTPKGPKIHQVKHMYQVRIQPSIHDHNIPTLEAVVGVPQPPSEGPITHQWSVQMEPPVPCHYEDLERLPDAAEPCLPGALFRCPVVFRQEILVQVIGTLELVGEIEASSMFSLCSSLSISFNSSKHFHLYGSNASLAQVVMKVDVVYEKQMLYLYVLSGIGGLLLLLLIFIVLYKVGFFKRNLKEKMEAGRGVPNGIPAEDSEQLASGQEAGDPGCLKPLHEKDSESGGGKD
T1 sequence (P05107 23-769 limits assumed, form in doubt, chain 2 of 2, further chain): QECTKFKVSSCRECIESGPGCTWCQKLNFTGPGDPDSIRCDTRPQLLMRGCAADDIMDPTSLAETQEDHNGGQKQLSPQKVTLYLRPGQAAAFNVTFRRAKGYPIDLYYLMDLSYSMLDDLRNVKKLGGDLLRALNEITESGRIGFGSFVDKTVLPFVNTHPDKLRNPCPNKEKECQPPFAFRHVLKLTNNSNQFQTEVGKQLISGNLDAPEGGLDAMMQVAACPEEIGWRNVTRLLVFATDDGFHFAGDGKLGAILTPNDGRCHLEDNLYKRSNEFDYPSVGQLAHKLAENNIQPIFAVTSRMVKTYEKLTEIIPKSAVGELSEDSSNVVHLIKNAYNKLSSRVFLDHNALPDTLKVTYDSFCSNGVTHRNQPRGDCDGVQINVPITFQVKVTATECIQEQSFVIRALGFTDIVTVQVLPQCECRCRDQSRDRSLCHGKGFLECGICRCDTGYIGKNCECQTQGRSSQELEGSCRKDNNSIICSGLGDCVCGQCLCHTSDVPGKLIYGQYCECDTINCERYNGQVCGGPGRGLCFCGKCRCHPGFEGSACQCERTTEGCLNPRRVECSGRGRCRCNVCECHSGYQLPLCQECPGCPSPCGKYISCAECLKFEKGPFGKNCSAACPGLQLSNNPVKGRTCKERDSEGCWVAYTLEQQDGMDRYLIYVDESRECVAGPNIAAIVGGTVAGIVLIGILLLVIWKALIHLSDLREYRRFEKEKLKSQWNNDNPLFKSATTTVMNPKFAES

B1: sICAM-1 (soluble ICAM-1), P05362 28-480 (ligand, UniProt P05362 28-480, looked up)
chain: QTSVSPSKVILPRGGSVLVTCSTSCDQPKLLGIETPLPKKELLLPGNNRKVYELSNVQEDSQPMCYSNCPDGQSTAKTFLTVYWTPERVELAPLPSWQPVGKNLTLRCQVEGGAPRANLTVVLLRGEKELKREPAVGEPAEVTTTVLVRRDHHGANFSCRTELDLRPQGLELFENTSAPYQLQTFVLPATPPQLVSPRVLEVDTQGTVVCSLDGLFPVSEAQVHLALGDQRLNPTVTYGNDSFSAKASVSVTAEDEGTQRLTCAVILGNQSQETLQTVTIYSFPAPNVILTKPEVSEGTEVTVKCEAHPRAKVTLNGVPAQPLGPRAQLLLKATPEDNGRSFSCSATLEVAGQLIHKNQTRELRVLYGPRLDERDCPGNWTWPENSQQTPMCQAWGNPLPELKCLKDGTFPLPIGESVTVTRDLEGTYLCRARSTQGEVTRKVTVNVLSPRYE
In test [1], B1 registered a Schild regression y-intercept of 8.51. In test [2], this molecule showed a fold IC50 against compound 3 greater than 100 fold. The IC50 in test [3] is 1200 nM.
